Test results: the supplement of paper PMC7877785
± gives the uncertainty stated by the source.

Test: self-splicing fitness, log relative to wild type (ln ratio); higher = more splicing; Tetrahymena group I intron in knt gene, E. coli kanamycin selection, DiMSum; sequences stand for … in CUCUCU…GGAGGGAAAAGUUAUCAGGCAUGCACCUGGUAGCUAGUCUUUAAACCAAUAGAUUGCAUCGGUUUAAAAGGCAAGACCGUCAAAUUGCGGGAAAGGGGUCAACAGCCGUUCAGUACCAAGUCUCAGGGGAAACUUUGAGAUGGCCUUGCAAAGGGUAUGGUAAUAAGCUGACGGACAUGGUCCUAACCACGCAGCCAAGUCCUAAGUCAACAGAUCUUCUGUUGAUAUGGAUGCAGUUCACAGACUAAAUGUCGGUCGGGGAAGAUGUAUUCUUCUCAUAAGAUAUAGUCGGACCUCUCCUUAAUGGGAGCUAGCGGAUGAAGUGAUGCAACACUGGAGCCGCUGGGAACUAAUUUGUAUGCGAAAGUAUAUUGAUUAGUUUUGGAGUACUCGUGGUCG
How it was run: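 The eight P1ex-region nucleotides of an intron in the knt kanamycin-resistance gene on pET-22b(+) were all randomised and the library put into E. coli BL21(DE3). Six replicate transformations were grown overnight at 37°C or 30°C on LB agar with or without 25 μg/mL kanamycin, together with 100 μg/mL carbenicillin, 50 μM IPTG and 0.2% rhamnose. Colonies were pooled and amplicon-sequenced on an Illumina HiSeq 2500. Fitness from DiMSum is the error-weighted combination of wild-type-normalised replicate fold changes, kanamycin over none.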

| Sequence | self-splicing fitness (ln) (30 °C) | self-splicing fitness (ln) (37 °C) |
| --- | --- | --- |
| UCCCAGCAAUAUUACGAAAC | -3.52 ± 0.44 | -1.93 ± 0.46 |
| ACAAAGCAAUAUUACGUGCC | -1.14 ± 0.077 | -1.16 ± 0.097 |
| AUAUAGCAAUAUUACGCUCG | -0.992 ± 0.12 | 0.0571 ± 0.18 |
| UCAGAGCAAUAUUACGGCUC | -4.58 ± 0.34 | -3.36 ± 0.25 |
| CGUUAGCAAUAUUACGCUUA | -3.67 ± 0.28 | -1.86 ± 0.25 |
| CGGCAGCAAUAUUACGAUGU | -3.85 ± 0.31 | -3.14 ± 0.35 |
| CUCAAGCAAUAUUACGAUUU | -3.68 ± 0.21 | -2.4 ± 0.25 |
| UCGCAGCAAUAUUACGCAGA | -3.72 ± 0.29 | -0.987 ± 0.12 |
| GCGCAGCAAUAUUACGUGAU | -0.659 ± 0.063 | 0.488 ± 0.083 |
| AUAUAGCAAUAUUACGGACU | -1.04 ± 0.11 | -0.14 ± 0.16 |
| GUCAAGCAAUAUUACGCUAG | -2.83 ± 0.15 | -2 ± 0.14 |
| UAAUAGCAAUAUUACGAGUC | -2.97 ± 0.19 | -3.77 ± 0.42 |
| AAUUAGCAAUAUUACGUAAA | -1.3 ± 0.11 | -0.736 ± 0.18 |
| UUGAAGCAAUAUUACGUCCG | 0.0359 ± 0.093 | 0.4 ± 0.12 |
| UUCGAGCAAUAUUACGAAGC | -2.63 ± 0.33 | -1.91 ± 0.36 |
| CGCCAGCAAUAUUACGUCCG | -0.462 ± 0.1 | -0.546 ± 0.12 |
| AUCUAGCAAUAUUACGAUGA | -1.03 ± 0.091 | -0.237 ± 0.091 |
| ACAAAGCAAUAUUACGCAUU | -3.06 ± 0.095 | -1.56 ± 0.082 |
| GGUCAGCAAUAUUACGCAAA | -1.16 ± 0.17 | -0.412 ± 0.18 |
| UCGCAGCAAUAUUACGCACC | -1.68 ± 0.27 | -1.6 ± 0.38 |
| GCUAAGCAAUAUUACGUCUG | -1.84 ± 0.085 | -0.987 ± 0.096 |
| UAAAAGCAAUAUUACGUAAA | -1.34 ± 0.077 | -1.1 ± 0.09 |
| CAAUAGCAAUAUUACGUGAA | -4.02 ± 0.37 | -1.7 ± 0.22 |
| AGCCAGCAAUAUUACGAUGC | -3.79 ± 0.47 | -0.986 ± 0.2 |

| Sequence | self-splicing fitness (ln) (30 °C) | self-splicing fitness (ln) (37 °C) |
| --- | --- | --- |
| UCAGAGCAAUAUUACGCGAG | -2.24 ± 0.12 | -1.06 ± 0.13 |
| GAACAGCAAUAUUACGGUAU | -0.973 ± 0.053 | -0.269 ± 0.074 |
| UUAUAGCAAUAUUACGAUGA | -0.778 ± 0.12 | 0.516 ± 0.14 |
| GUACAGCAAUAUUACGACCC | -0.186 ± 0.36 | 0.979 ± 0.36 |
| CGGGAGCAAUAUUACGUAGG | -1.91 ± 0.099 | -1.6 ± 0.17 |
| AGGCAGCAAUAUUACGGGGC | -3.89 ± 0.37 | -2.07 ± 0.23 |
| GAUCAGCAAUAUUACGUCAC | -3.88 ± 0.2 | -2.13 ± 0.15 |
| AUCGAGCAAUAUUACGAACU | -1.06 ± 0.17 | -0.725 ± 0.19 |
| AACGAGCAAUAUUACGAGUG | -1.64 ± 0.097 | -0.602 ± 0.12 |
| UCUGAGCAAUAUUACGUCAA | -2.53 ± 0.24 | -2.22 ± 0.27 |
| GCAGAGCAAUAUUACGGGUU | -3.83 ± 0.3 | -2.6 ± 0.3 |
| CCAUAGCAAUAUUACGUCUG | -1.4 ± 0.075 | -0.687 ± 0.07 |
| GUAUAGCAAUAUUACGUGAG | -1.85 ± 0.13 | -1.42 ± 0.17 |
| UUUUAGCAAUAUUACGCGAU | -3.02 ± 0.34 | -1.97 ± 0.27 |
| CCGGAGCAAUAUUACGCGGA | -3.34 ± 0.23 | -2.74 ± 0.29 |
| ACCGAGCAAUAUUACGCGUC | -3.17 ± 0.15 | -2.18 ± 0.22 |
| GCUCAGCAAUAUUACGUAGC | -1.23 ± 0.12 | -1.43 ± 0.16 |
| ACUGAGCAAUAUUACGGCCG | -1.89 ± 0.17 | -0.752 ± 0.2 |
| AUAGAGCAAUAUUACGGUUC | -3.21 ± 0.24 | -1.29 ± 0.22 |
| CCAUAGCAAUAUUACGGCCU | -3.71 ± 0.37 |  |
| GACCAGCAAUAUUACGGGCG | 0.17 ± 0.059 | 0.374 ± 0.078 |
| AUUAAGCAAUAUUACGUAGA | -2.39 ± 0.15 | -0.947 ± 0.15 |
| UGCGAGCAAUAUUACGCCUA | -2.48 ± 0.19 | -0.762 ± 0.16 |
| GCAUAGCAAUAUUACGUGAA | -0.877 ± 0.067 | -0.528 ± 0.07 |

| Sequence | self-splicing fitness (ln) (30 °C) | self-splicing fitness (ln) (37 °C) |
| --- | --- | --- |
| AGGAAGCAAUAUUACGUUCU | -3.47 ± 0.28 | -1.59 ± 0.17 |
| GAGUAGCAAUAUUACGUGUG | -2.73 ± 0.11 | -1.87 ± 0.12 |
| CGGCAGCAAUAUUACGUCAC | -3.84 ± 0.25 | -2.81 ± 0.29 |
| GCUGAGCAAUAUUACGUUUU | -4.08 ± 0.26 | -3.21 ± 0.22 |
| AGCUAGCAAUAUUACGUGCC | -2.52 ± 0.36 | -1.84 ± 0.27 |
| CCCGAGCAAUAUUACGCAGU | -2.82 ± 0.16 | -2.64 ± 0.18 |
| AAGGAGCAAUAUUACGCCCC | -1.19 ± 0.47 | -1.42 ± 0.46 |
| GGGAAGCAAUAUUACGAAUA |  | -1 ± 0.2 |
| AUCAAGCAAUAUUACGGGAG | -1.16 ± 0.097 | -0.571 ± 0.099 |
| UAGCAGCAAUAUUACGUUCA | 0.0863 ± 0.062 | 0.0609 ± 0.1 |
| CGCUAGCAAUAUUACGCACA | -1.37 ± 0.13 | -0.405 ± 0.1 |
| UUCGAGCAAUAUUACGGAAU | -3.13 ± 0.18 | -2.87 ± 0.27 |
| UUCUAGCAAUAUUACGGCAC |  | -0.626 ± 0.23 |
| CCCAAGCAAUAUUACGUCCA | -1.96 ± 0.14 | -2.45 ± 0.23 |
| UUCAAGCAAUAUUACGAUUA | -0.129 ± 0.08 | 0.183 ± 0.081 |
| CGUUAGCAAUAUUACGUCCG | -0.128 ± 0.18 | -0.407 ± 0.2 |
| ACUCAGCAAUAUUACGAGUC | -5.21 ± 0.29 | -2.97 ± 0.2 |
| CGCCAGCAAUAUUACGUUGC | -3.95 ± 0.29 | -2.45 ± 0.22 |
| GGAAAGCAAUAUUACGCAAC | -3.25 ± 0.24 | -1.02 ± 0.23 |
| CCAUAGCAAUAUUACGCCGA | -1.4 ± 0.26 | -1.57 ± 0.42 |
| UCACAGCAAUAUUACGUCAG | -1.59 ± 0.077 | -0.829 ± 0.1 |
| ACGCAGCAAUAUUACGACAU | -0.318 ± 0.011 | 0.305 ± 0.032 |
| CACGAGCAAUAUUACGUUUA | -2.88 ± 0.18 | -2.52 ± 0.19 |
| AUGGAGCAAUAUUACGGUGG | -4.09 ± 0.3 | -2.17 ± 0.27 |

| Sequence | self-splicing fitness (ln) (30 °C) | self-splicing fitness (ln) (37 °C) |
| --- | --- | --- |
| GCUGAGCAAUAUUACGCAGU | -4.98 ± 0.45 | -3.31 ± 0.34 |
| ACUUAGCAAUAUUACGUACG | -1.45 ± 0.099 | -1.04 ± 0.13 |
| GGCAAGCAAUAUUACGGCUG | -1.68 ± 0.1 | -0.318 ± 0.16 |
| CAGAAGCAAUAUUACGCUGC |  | -2.34 ± 0.49 |
| GUGAAGCAAUAUUACGAUGG | -2.31 ± 0.11 | 0.388 ± 0.13 |
| CGAAAGCAAUAUUACGAUUG | -0.934 ± 0.074 | -0.262 ± 0.1 |
| CCAAAGCAAUAUUACGCCAU | -3.42 ± 0.17 | -1.88 ± 0.17 |
| CGUGAGCAAUAUUACGCGGU | -3.83 ± 0.34 | -2.06 ± 0.32 |
| GUCUAGCAAUAUUACGCACU | -0.628 ± 0.047 | 0.389 ± 0.063 |
| GAGGAGCAAUAUUACGCUAC | -3.94 ± 0.37 | -2.66 ± 0.33 |
| AUUCAGCAAUAUUACGGGCU | -2.2 ± 0.12 | -1.38 ± 0.12 |
| AGCCAGCAAUAUUACGCUAG | -2.97 ± 0.25 | -2.81 ± 0.25 |
| AAGUAGCAAUAUUACGUUUU | -2.71 ± 0.13 | -2.17 ± 0.17 |
| UUCGAGCAAUAUUACGACAU | -3.097 ± 0.026 | -1.94 ± 0.038 |
| AACGAGCAAUAUUACGUAGG | -3.93 ± 0.21 | -2.49 ± 0.18 |
| UGUGAGCAAUAUUACGAUGG | -2.74 ± 0.2 | -2.27 ± 0.19 |
| CCGCAGCAAUAUUACGUCCG | -0.393 ± 0.084 | -0.499 ± 0.09 |
| GAUAAGCAAUAUUACGAGUA | -1.84 ± 0.15 | -1.45 ± 0.14 |
| GGUAAGCAAUAUUACGUAAA | -0.961 ± 0.083 | -1.13 ± 0.13 |
| ACGAAGCAAUAUUACGUCAA | -3.35 ± 0.17 | -3.51 ± 0.22 |
| GCGCAGCAAUAUUACGACUC | -0.32 ± 0.17 | 0.304 ± 0.15 |
| UCCCAGCAAUAUUACGCGCC | -3.11 ± 0.35 | -1.29 ± 0.21 |
| CAGAAGCAAUAUUACGCUAA | -4.46 ± 0.42 | -1.97 ± 0.26 |
| AUAUAGCAAUAUUACGAGUU | -3.19 ± 0.18 | -1.46 ± 0.15 |
